This series concerns the molecule itself. Description: SEC. Background: Size exclusion chromatography separates by hydrodynamic size, large species first.

B1: Physalis mottle virus (PhMV) virus-like particle, native (unmodified recombinant coat protein) (natural protein)
chain: MDSSEVVKVKQASIPAPGSILSQPNTEQSPAIVLPFQFEATTFGTAETAAQVSLQTADPITKLTAPYRHAQIVECKAILTPTDLAVSNPLTVYLAWVPANSPATPTQILRVYGGQSFVLGGAISAAKTIEVPLNLDSVNRMLKDSVTYTDTPKLLAYSRAPTNPSKIPTASIQISGRIRLSKPMLIAN
For B1, the binding result is “binds”.

The values above are taken from PMC7060085 (ACS applied materials & interfaces, 2019).
